According to patent US6030776:

Key:
[1] = molecular target: N-bromoacetyl-bradykinin (BrBK) (UniProt P01042); settings: 5' guanosine monophosphorothioate (GMPS); 100-fold reduction in Km vs bulk 30N1 pool, 67-fold higher kcat, 6700-fold higher kcat/Km; thioether bond formation assayed on APM gel
[2] = molecular target: bradykinin (native BK peptide) (UniProt P01042); test: inhibition; settings: 5' guanosine monophosphorothioate (GMPS); inhibition of reaction of 12.1 with BrBK; nearly identical to Km of the uninhibited reaction
[3] = molecular target: des-Arg9-bradykinin lacks carboxy-terminal Arg9 (UniProt P01042); test: inhibition; settings: 5' guanosine monophosphorothioate (GMPS); inhibition of reaction of 12.1 with BrBK; about 18-fold weaker than BK

“AGGCUUCGACAAACGCUCAAAGCUGUUGGCAGCGCUGGUGAAGGGAUGGC [reactant 12.1 GMPS-RNA]” showed a fold reduction in Km vs starting pool [1] of 100 fold, a Ki [2] of 140 µM and a Ki [3] of 2600 µM.
